The DeepSol protein solubility set

experiment: soluble on expression in E. coli; label from the status in PepcDB or PDB records

Row | Sequence | soluble on expression in E. coli
1 | FQGAMDPEFSMKIGIIGAMEEEVTLLRDKIENRQTISLGGCEIYTGQLNGTEVALLKSGIGKVAAALGATLLLEHCKPDVIINTGSAGGLAPTLKVGDIVVSDEARYHDADVTAFGYEYGQLPGCPAGFKADDKLIAAAEACIAELNLNAVRGLIVSGDAFINGSVGLAKIRHNFPQAIAVEMEATAIAHVCHNFNVPFVVVRAISDVADQQSHLSFDEFLAVAAKQSSLMVESLVQKLAHG | soluble
2 | GAACNVLFINSVEMESLTGPQAISKAVAETLVADPTPTATIVHFKVSAQGITLTDNQRKLFFRRHYPLNTVTFCDLDPQERKWTKTDGSGPAKLFGFVARKQGSTTDNVCHLFAELDPDQPAAAIVNFVSRVML | soluble
3 | GAADKRIDGNGNPETREIKISDYDEITFVGSADFEYEQSDKAPYLSVTIDENLFDYLVTEVEGGTLKIYPKSIKKGFNNNSYDLRPTVYKIKSNSKELKELNTVGSGSFIISKPTKVNRMEINMAGSGNVELRGPVKGYKLECNMAGSGNIIAKDIQLDNLSCSLASSGEIEVIGTVDRASFNVAGSGEIKAFDCQARKAECNIASSGEISVYATQILDANIVGSGEIHYKGDPEISKSIMGSGSINKVK | soluble
4 | GAMAFDWDAYLEETGSEAAPAKCFKQAQNPPNNDFKIGMKLEALDPRNVTSTCIATVVGVLGSRLRLRLDGSDSQNDFWRLVDSTEIHAIGHCEKNGGMLQPPLGFCMNASSWPGYLCKILNNAMVAPEEIFQPEPPEPEENLFKVGQKLEAVDKKNPQLICCATVDAIKDDQIHVTFDGWRGAFDYWCNYRSRDIFPAGWCARSCHPMQPPGHKSRMDSSSSKQRCPRPRYTVVAESEAMVPASPATAHFHPNCKGGPFINNSK | soluble
5 | GAMEDKVDAIREAIARNPQEIFQYVRLSQVKRDDKVLGYRVSPGKDPVLFESIGLQDGDMAVALNGLDLTDPNVMNTLFQSMNEMTEMSLTVERDGQQHDVYIQF | soluble
6 | GAMGPREVTMKKGDILTLLNSTNKDWWKVEVNDRQGFVPAAYVKKLDSGTGKELVLALYDYQESGDNAPSYSPPPPP | soluble
7 | GAMGSEESLKHATRIIDEVVSKFLDDLGNAKSHLMSLYSACSSEVPPGPVDQKFQSIVIGCALEDQKKIKRRLETLLRNIDNSDKAIK | soluble
8 | GAMGSMSVSEANGTETIKPPMNGNPYGPNPSDFLSRVNNFSIIESTLREGEQFANAFFDTEKKIQIAKALDNFGVDYIELTSPVASEQSRQDCEAICKLGLKCKILTHIRCHMDDARVAVETGVDGVDVVIGTSQYLRKYSHGKDMTYIIDSATEVINFVKSKGIEVRFSSEDSFRSDLVDLLSLYKAVDKIGVNRVGIADTVGCATPRQVYDLIRTLRGVVSCDIECHFHNDTGMAIANAYCALEAGATHIDTSILGIGERNGITPLGALLARMYVTDREYITHKYKLNQLRELENLVADAVEVQIPFNNYITGMCAFTHKAGIHAKAILANPSTYEILKPEDFGMSRYVHVGSRLTGWNAIKSRAEQLNLHLTDAQAKELTVRIKKLADVRTLAMDDVDRVLREYHADLSDADRITKEASA | soluble
9 | GASALSLSLLSISRSGNTVTLIGDFPDEAAKAALMTALNGLLAPGVNVIDQIHVDPVVRSLDFSSAEPVFTASVPIPDFGLKVERDTVTLTGTAPSSEHKDAVKRAATSTWPDMKIVNNIEVTGQAPPGPPA | soluble
10 | GGGVKAFAFIGALQVLEENGFSFTRVAGTSAGAIFASLVCSGYRSDELFSIMEQLDGKMFKDGGKVMPFPFAKWLRLYFKLGMYKGDQLEKWLIQVLGHKGVSTFADLPKGALKIVASDISRGRLIVLPDDLKDYGLIPERFSVARAVRMSCGIPYFFQPVKLYNRKRRGERSYVVDGGILSNFPIWL | not soluble
11 | GGSSRHQFDLIMCLKQPGVQTGLLCEKCDGKCPICDSYVRPKRKVRVCENCSFGKQAKNCIICNLNVGVNDAFYCWECCRLGKDKDGCPRILNLGSNRLDRHFEKKKKV | soluble
12 | GHHHHHHMTTQLEQAWELAKQRFAAVGIDVEEALRQLDRLPVSMHCWQGDDVSGFENPEGSLTGGIQATGNYPGKARNASELRADLEQAMRLIPGPKRLNLHAIYLESDTPVSRDQIKPEHFKNWVEWAKANQLGLDFNPSCFSHPLSADGFTLSHADDSIRQFWIDHCKASRRVSAYFGEQLGTPSVMNIWIPDGMKDITVDRLAPRQRLLAALDEVISEKLNPAHHIDAVESKLFGIGAESYTVGSNEFYMGYATSRQTALCLDAGHFHPTEVISDKISAAMLYVPQLLLHVSRPVRWDSDHVVLLDDETQAIASEIVRHDLFDRVHIGLDFFDASINRIAAWVIGTRNMKKALLRALLEPTAELRKLEAPGDYTARLALLEEQKSLPWQAVWEMYCQRHDTPAGSEWLESVRAYEKEILSRRG | soluble
13 | GHLDDNVTQEDIQAMLQEGSSAGVIEHNEHAMVKNVFRLDERTISSLMVPRSDIVFLDLNLPLDANLRTVMQSPHSRFPVCRNNVDDMVGIISAKQLLSESIAGERLELVDLVKNCNFVPNSLSGMELLEHFRTTGSQMVFVVDEYGDLKGLVTLQDMMDALTGEFFQEDGS | soluble
14 | GHMEVTLIVFHAGSLSVPFQEVEKEFSEYAERNLGIKVSFQDEASGSVMAVRKVTDLGRKADVIGVADYTLIPQLLIPNYTDFYVLFATNEIVIAFTDKSRYVEEMKSNPDKWYEILAREDVRFGFSDPNQDPCGYRSLMVIKLADLYYGKEIFKELIEENTNIYSNGTQIYAPKEITVNPGKIVIRPKETDLLGLVESGSIDYIFIYKSVAKQHNLSYITLPSEINLGDFSKEKFYGQISITLGSTGKTIKAKPIVYGVTVLKDAPNREVAIEFLRYLLSENGKRIFEKNHQDFL | soluble
15 | GHMKIVLKIFHAGSLSVPFEEYEKMFEKEHPNVDVEREPAGSVACVRKIIDLGKKADILASADYSLIPQMMMPKYADWYVMFARNEIVLAYTDKSKYKDEINSTNWYKILQRPDVKIGFSNPNDDPCGYRTQMVLQLAELYYKDPTIYDNLVLKHSNIKVEENNGTYLILVPKELDVDTNKLFVRSKETDLLAPLEAGAFDYLFIYKSVANQHHLKYIELPKEINLGYYEYADTYKKVALKIIAKNKTINAKPIVYGMTVPTNAPHKKEAIEFVKFVLGHPEVLENNGQPAI | soluble
16 | GHMREMLQVERPKLILDDGKRTDGRKPDELRSIKIELGVLKNADGSAIFEMGNTKAIAAVYGPKEMHPRHLSLPDRAVLRVRYHMTPFSTDERKNPAPSRREIELSKVIREALESAVLVELFPRTAIDVFTEILQADAGSRLVSLMAASLALADAGIPMRDLIAGVAVGKADGVIILDLNETEAMWGEADMPIAMMPSLNQVTLFQLNGSMTPDEFRQAFDLAVKGINIIYNLEREALKSKYVEFKEEGV | soluble
17 | GIALVLIAAGLGLARLLLGPEVVAALVQRGNLVQTVVASGHIETPYRVEIASQITGTVKDVLVKEGEQVHQGQQLVAIEASELQASVVQAEGAVAQAQARVRQLRELTKPAADEALKQAQANLLNAQAAYERASKLAASGYGTKATLDDATKNLDVARTQVRTAELQVFTTSPGGSDFVMAETQLGQALANLNTAQARLGYATIVAPRDGVLITRNVERGTVVQPGKALLVLAPAGDIQIVVQIDEKNLGQLALGQHAMASADAYPDKRFDATLSYINPSVDINRASVEIKLKVDDPPDYLRQDMTVSVDIATARRDDVVIVPARAVNDAAAAPYVLKASGGRAVRQPVKLGLRGVGFYEVIDGLVPGDRVIPLATGVKPD | soluble
18 | GIVNVPNPNNTKFQELARFAIQDYNKKQNAHLEFVENLNVKEQVVAGIMYYITLAATDDAGKKKIYKAKIWVKEWEDFKKVVEFKLV | soluble
19 | GKAVIAIHGGAGAISRAQMSLQQELRYIEALSAIVETGQKMLEAGESALDVVTEAVRLLEECPLFNAGIGAVFTRDETHELDACVMDGNTLKAGAVAGVSHLRNPVLAARLVMEQSPHVMMIGEGAENFAFARGMERVSPEIFSTSLRYEQLLAARKEGATVLDHSGAPLDEKQKMGAVGAVALDLDGNLAAATSTGGMTNKLPGRVGDSPLVGAGCYANNASVAVSCTGTGEVFIRALAAYDIAALMDYGGLSLAEACERVVMEKLPALGGSGGLIAIDHEGNVALPFNTEGMYRAWGYAGDTPTTGIYREKGDTVATQ | soluble
20 | GLDNELSLVDGQDRTLTVQQWDTFLNGVFPLDRNRLTREWFHSGRAKYIVAGPGADEFEGTLELGYQIGGPGIQEVATFSVDVSGAEGGVAVSNAHGTVTGAAGGVLLRPFARLIASTGDSVTTYGEPWNMN | soluble
21 | GLETSSKKYSLGKTLGTGSFGIVCEVFDIESGKRFALKKVLQDPRYKNRELDIMKVLDHVNIIKLVDYFYTTGDEEPKPPQPPDDHNKLGGKNNGVNNHHKSVIVNPSQNKYLNVIMEYVPDTLHKVLKSFIRSGRSIPMNLISIYIYQLFRAVGFIHSLGICHRDIKPQNLLVNSKDNTLKLCDFGSAKKLIPSEPSVAYICSRFYRAPELMLGATEYTPSIDLWSIGCVFGELILGKPLFSGETSIDQLVRIIQIMGTPTKEQMIRMNPHYTEVRFPTLKAKDWRKILPEGTPSLAIDLLEQILRYEPDLRINPYEAMAHPFFDHLRNSYESEVKNNSNFPHGVNQNIPQLFNFSPYELSIIPGNVLNRILPKNFSPNYKH | soluble
22 | GLFQFLRIVMRPSDQLLGLDEKGTIRTIDETGKASPIPGMVIYRFNSPLTYFNAPYFKRRLLEHAEQNKDVSCVVVDAVSSFTHLDLSVMATLADIHEVLKKRGIRLVLAGRKRRLRQWCELTGISTSEGGILLRADMYLAIKLSGSYLSAVGEGIVPTVQKEPDLEQPPKPIPEVA | not soluble
23 | GLIDSHVHPVVGDYTPRQQQLHWIDSTLHGGVTTLISAGEVHMPGRPKDIVGLKAMAIAAQRWYENFRPSGVKVMAGAPVIEHGMVEQDFKELADAGVKLLGEVGLGTVKDGKTARQMVDWARKYGIQSTIHTGGPSIPGSGLIDADMVLETGTDVIGHINGGHSALPDDQIMCLCESCTAGLEIVHNGNERAALLTLNTARELKQMDRIILGTDGPAGSGVQPLGILRMVAMLSALGNVPAEIAFCFANGNTARQRELDTGLLERGYAADFVLMDQAQHAPGKTILESVQLGNLPGVGMTVIDGVVCSERSRNTPPATRLPRIVS | not soluble
24 | GMDVTIERVNDFDGYNWLPLLAKSSQEGFQLVERMLRNRREESFQEDGEAMFVALSTTNQVLACGGYMKQSGQARTGRIRHVYVLPEARSHGIGTALLEKIMSEAFLTYDRLVLYSEQADPFYQGLGFQLVSGEKITHTLDKTAFADSNR | soluble
25 | GMELKSAEEKSLYYRNKIKEVIDEVGKVVVGQKYMINRLLIGICTGGHILLEGVPGLAKTLSVNTLAKTMDLDFHRIQFTPDLLPSDLIGTMIYNQHKGNFEVKKGPVFSNFILADEVNRSPAKVQSALLECMQEKQVTIGDTTYPLDNPFLVLATQNPVEQEGTYPLPEAQVDRFMMKIHLTYLDKESELEVMRRVSNMNFNYQVQKIVSKNDVLEIRNEINKVTISESLEKYIIELVFATRFPAEYGLEAEASYILYGASTRAAINLNRVAKAMAFFNNRDYVLPEDIKEVAYDILNHRIILNYEAEAEGISTRQIIETILRKVNITKA | soluble
26 | GMEYQLQQLASLTLVGIKETYENGRQAQQHIAGFWQRCYQEGVIADLQLKNNGDLAGILGLCIPELDGKMSYMIAVTGDNSADIAKYDVITLASSKYMVFEAQGAVPKAVQQKMEEVHHYIHQYQANTVKSAPFFELYQDGDTTSEKYITEIWMPVKG | soluble
27 | GMFADNTLTPKEAVRLCALGTIASQPMRYSELAGSVRHFTSRIMGPSLELMGISIELLRYEGLVEAVDDGQGMEDDAMLAISAAGRRELHSLLTARLRPGSDLSKLVVALKMRFLGLMEAEERAHQIDLLIEGVDSELARLADLRGSDGEGGSALAAWLDHDMALLESRLAWLEDFRARL | soluble
